Results published in patent publication US20240239894A1 (AstraZeneca / MedImmune, published 2024).

T1: huB7-H3 (human, UniProt Q5ZPR3 29-461, limits assumed)
T1 construct: Sourced antigen; construct not described; also called Human B7-H3
T1 sequence (looked up): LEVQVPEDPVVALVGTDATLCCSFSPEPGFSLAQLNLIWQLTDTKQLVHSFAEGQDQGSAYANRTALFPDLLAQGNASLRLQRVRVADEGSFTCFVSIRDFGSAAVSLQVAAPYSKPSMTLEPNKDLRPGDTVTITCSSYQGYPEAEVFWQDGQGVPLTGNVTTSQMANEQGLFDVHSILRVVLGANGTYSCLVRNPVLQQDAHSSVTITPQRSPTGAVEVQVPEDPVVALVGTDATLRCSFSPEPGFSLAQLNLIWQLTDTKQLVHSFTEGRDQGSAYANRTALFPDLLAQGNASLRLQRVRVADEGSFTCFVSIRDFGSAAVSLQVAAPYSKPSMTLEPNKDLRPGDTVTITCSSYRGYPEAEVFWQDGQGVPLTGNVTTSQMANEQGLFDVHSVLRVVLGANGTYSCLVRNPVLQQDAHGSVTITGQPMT

T2: huHHLA2 (human, UniProt Q9UM44 23-344)
T2 construct: Sourced antigen; construct not described; also called Human HHLA2
T2 sequence (looked up): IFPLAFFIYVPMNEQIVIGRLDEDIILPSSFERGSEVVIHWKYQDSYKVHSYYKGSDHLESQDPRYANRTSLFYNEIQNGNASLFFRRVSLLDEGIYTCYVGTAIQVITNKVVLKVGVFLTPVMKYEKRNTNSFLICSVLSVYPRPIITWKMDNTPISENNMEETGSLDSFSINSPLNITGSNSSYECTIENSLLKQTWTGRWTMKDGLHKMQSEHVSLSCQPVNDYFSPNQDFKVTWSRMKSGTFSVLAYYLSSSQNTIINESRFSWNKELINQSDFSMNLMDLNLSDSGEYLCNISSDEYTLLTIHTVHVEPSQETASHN

T3: huB7-H2 (human, UniProt O75144 19-258)
T3 construct: Sourced antigen; construct not described; also called Human B7-H2
T3 sequence (looked up): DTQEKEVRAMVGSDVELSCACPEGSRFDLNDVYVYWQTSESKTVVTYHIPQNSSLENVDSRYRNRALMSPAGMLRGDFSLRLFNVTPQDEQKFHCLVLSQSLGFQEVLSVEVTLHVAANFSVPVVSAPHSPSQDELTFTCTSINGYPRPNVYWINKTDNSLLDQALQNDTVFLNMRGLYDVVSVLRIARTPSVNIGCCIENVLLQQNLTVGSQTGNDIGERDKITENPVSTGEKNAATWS

T4: huBTN1A1 (human, UniProt Q13410 27-242, limits assumed)
T4 construct: Sourced antigen; construct not described; also called Human BTN1A1
T4 sequence (looked up): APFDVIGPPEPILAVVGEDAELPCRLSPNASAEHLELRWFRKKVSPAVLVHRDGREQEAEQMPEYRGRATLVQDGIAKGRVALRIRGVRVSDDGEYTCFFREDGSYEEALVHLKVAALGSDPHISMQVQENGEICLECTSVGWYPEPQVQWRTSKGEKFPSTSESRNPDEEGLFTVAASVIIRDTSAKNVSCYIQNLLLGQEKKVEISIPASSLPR

T5: huBTN2A1 (human, UniProt Q7KYR7 29-248, limits assumed)
T5 construct: Sourced antigen; construct not described; also called Human BTN2A1
T5 sequence (looked up): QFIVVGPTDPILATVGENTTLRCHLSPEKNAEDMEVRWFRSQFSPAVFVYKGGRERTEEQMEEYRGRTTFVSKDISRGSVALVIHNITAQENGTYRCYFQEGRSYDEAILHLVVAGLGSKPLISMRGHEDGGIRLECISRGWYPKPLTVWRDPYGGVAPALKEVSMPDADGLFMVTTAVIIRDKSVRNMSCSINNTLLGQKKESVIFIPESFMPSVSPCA

T6: huBTNL3 (human, UniProt Q6UXE8 18-237, limits assumed)
T6 construct: Sourced antigen; construct not described; also called Human BTNL3
T6 sequence (looked up): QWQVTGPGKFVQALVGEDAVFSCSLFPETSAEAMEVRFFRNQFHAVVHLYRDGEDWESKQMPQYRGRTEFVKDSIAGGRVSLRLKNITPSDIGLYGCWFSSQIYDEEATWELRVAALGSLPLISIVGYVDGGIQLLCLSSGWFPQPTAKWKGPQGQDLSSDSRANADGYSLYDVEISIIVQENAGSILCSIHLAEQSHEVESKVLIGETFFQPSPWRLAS

T7: Murine B7-H4-Fc (Mouse B7H4 ECD, Fc_6His) (mouse, UniProt Q7TSP5 25-257)
T7 construct: extracellular domain; also called mouse B7-H4-Fc; FcHis6 tagged murine B7-H4
T7 sequence (Q7TSP5 whole entry, looked up): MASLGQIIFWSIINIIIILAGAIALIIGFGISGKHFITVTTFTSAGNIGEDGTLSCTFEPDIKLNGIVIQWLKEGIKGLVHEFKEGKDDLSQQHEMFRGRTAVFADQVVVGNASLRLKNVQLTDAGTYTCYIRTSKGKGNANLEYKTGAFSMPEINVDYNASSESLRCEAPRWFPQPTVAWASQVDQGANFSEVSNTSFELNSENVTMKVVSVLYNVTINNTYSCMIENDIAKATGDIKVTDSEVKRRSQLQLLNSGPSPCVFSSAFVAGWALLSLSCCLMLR

T8: Human B7-H4-Fc (Human B7H4 ECD, Fc_6His) (human)
T8 construct: also called FcHis6 tagged human B7-H4
T8 sequence (Q7Z7D3 whole entry, looked up): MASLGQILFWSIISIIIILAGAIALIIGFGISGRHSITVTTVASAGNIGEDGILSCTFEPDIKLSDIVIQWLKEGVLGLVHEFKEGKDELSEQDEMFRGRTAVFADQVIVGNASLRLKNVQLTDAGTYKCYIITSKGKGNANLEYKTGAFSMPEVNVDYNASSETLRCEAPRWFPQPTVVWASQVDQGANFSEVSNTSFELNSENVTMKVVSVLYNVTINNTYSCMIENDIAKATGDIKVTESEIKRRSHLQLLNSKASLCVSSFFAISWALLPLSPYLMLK


Columns and labels:
huBTN3A2 = target: T9, huBTN3A2 (human, UniProt P78410 30-248, limits assumed); assay: ELISA, absorbance 450 nm, antigen human BTN3A2 GST
T9 construct: Sourced antigen; construct not described; also called Human BTN3A2

huB7-H3 = target: T1, huB7-H3; assay: ELISA, absorbance 450 nm, antigen human B7-H3 (ECD) Fc
huHHLA2 = target: T2, huHHLA2; assay: ELISA, absorbance 450 nm, antigen human HHLA2 GST
huB7-H2 = target: T3, huB7-H2; assay: ELISA, absorbance 450 nm, antigen human B7-H2 (ECD) F10H
huBTN1A1 = target: T4, huBTN1A1; assay: ELISA, absorbance 450 nm, antigen human BTN1A1 GST
huB7-H1 = target: T10, huB7-H1 (human, UniProt Q9NZQ7 19-238); assay: ELISA, absorbance 450 nm, antigen human B7-H1(ECD) F10H
T10 construct: Sourced antigen; construct not described; also called Human B7-H1

huBTN2A1 = target: T5, huBTN2A1; assay: ELISA
huBTNL3 = target: T6, huBTNL3; assay: ELISA
[1] = target: T7, Murine B7-H4-Fc (Mouse B7H4 ECD, …); assay: HTRF binding, murine IgG1
[2] = target: T11, Cyno B7-H4-Fc (Cyno B7H4 ECD, FcTM_6His) (cynomolgus monkey); assay: HTRF binding, murine IgG1
T11 construct: extracellular domain; also called cynomolgus B7-H4-Fc

[3] = target: T8, Human B7-H4-Fc (Human B7H4 ECD, Fc_6His); assay: HTRF binding, murine IgG1

T9 sequence (P78410 30-248 limits assumed): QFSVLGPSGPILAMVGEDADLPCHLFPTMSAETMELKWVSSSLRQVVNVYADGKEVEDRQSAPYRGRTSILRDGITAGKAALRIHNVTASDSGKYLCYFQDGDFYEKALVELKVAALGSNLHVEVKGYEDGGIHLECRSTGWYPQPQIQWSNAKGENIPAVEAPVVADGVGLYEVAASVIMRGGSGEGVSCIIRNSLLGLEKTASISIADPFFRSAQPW
T10 sequence (Q9NZQ7 19-238 limits assumed): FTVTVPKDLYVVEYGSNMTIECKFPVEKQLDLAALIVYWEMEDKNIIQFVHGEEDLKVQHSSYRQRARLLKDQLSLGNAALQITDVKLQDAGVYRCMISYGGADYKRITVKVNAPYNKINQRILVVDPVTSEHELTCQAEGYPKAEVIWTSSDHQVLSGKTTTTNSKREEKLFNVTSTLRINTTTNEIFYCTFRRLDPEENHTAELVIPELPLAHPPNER

Binder | binding result (huB7-H3) | binding result (huB7-H2) | binding result (huBTN1A1) | binding result (huB7-H1) | binding result (huBTN2A1) | binding result (huBTNL3) | EC50 [1] [pM] | Max [1] | EC50 [2] [pM] | Max [2] | EC50 [3] [pM] | Max [3] | binding result (huBTN3A2) | binding result (huHHLA2)
human ZY0EP0-C07 (antibody, V domains shown) VH: QVQLVESGGVLVKPGGSLRLSCAASGFTLSDYYMSWIRQAPGMGLEWVSYISSSGSTIYYTDSVKGRFTISRDSAKNSLYLQMNSLRAEDTAVYYCARDGVGFDYWGQGTLVTVSS VL: EIVLTQSPGTLSLFPGERATLSCRASQSVSSSYLAWYQQKPGQSPRLLIYAASSRATGIPDRFSGSGSGTDFTLTISRLEPEDFAVYYCQQYGSSPLYTFGQGTKLEIK | no binding | no binding (tested: 10 µg/ml (antigen)) | no binding (tested: 10 µg/ml (antigen)) | no binding (tested: 10 µg/ml (antigen)) |  |  |  |  |  |  |  |  | no binding (tested: about 10 µg/ml (antigen)) | no binding (tested: about 10 µg/ml (antigen))
ZY0EOB-F05 murine IgG1 (antibody, V domains shown) VH: QVQLQESGPGLVKPSQTLSLTCTVSDGSISSGGYYWSWIRQHPGKGLEWIGNIYYSGSTYYNPSLKSRVTISVDTSKNQFSLKLNSVTAADTAVYYCATEKALATVTPSGYENYYTVDVWGQGTTVTVSS VL: DIQLTQSPSFLSASVGDRVTITCWASQGISSYLAWYQQKPGKAPKLLIYAASTLQSGVPSRFSGSGSGTEFTLTISSLQPEDFATYYCQHLNSYPLTFGGGTKVEIK | no binding | no binding (tested: 10 µg/ml (antigen)) | no binding (tested: 10 µg/ml (antigen)) | no binding (tested: 10 µg/ml (antigen)) | no binding | no binding | 380 | 2190 | 320 | 2400 | 300 | 3020 | no binding (tested: about 10 µg/ml (antigen)) | no binding (tested: about 10 µg/ml (antigen))

The next lines start with results.

binding result (huB7-H3) | binding result (huB7-H2) | binding result (huBTN1A1) | binding result (huB7-H1) | binding result (huBTN2A1) | binding result (huBTNL3) | EC50 [1] [pM] | Max [1] | EC50 [2] [pM] | Max [2] | EC50 [3] [pM] | Max [3] | Binder | binding result (huBTN3A2) | binding result (huHHLA2)
no binding | no binding (tested: 10 µg/ml (antigen)) | no binding (tested: 10 µg/ml (antigen)) | no binding (tested: 10 µg/ml (antigen)) |  |  |  |  |  |  |  |  | human ZY0EOB-F05 (antibody, V domains shown) VH: QVQLQESGPGLVKPSQTLSLTCTVSDGSISSGGYYWSWIRQHPGKGLEWIGNIYYSGSTYYNPSLKSRVTISVDTSKNQFSLKLNSVTAADTAVYYCATEKALATVTPSGYENYYTVDVWGQGTTVTVSS VL: DIQLTQSPSFLSASVGDRVTITCWASQGISSYLAWYQQKPGKAPKLLIYAASTLQSGVPSRFSGSGSGTEFTLTISSLQPEDFATYYCQHLNSYPLTFGGGTKVEIK | no binding (tested: about 10 µg/ml (antigen)) | no binding (tested: about 10 µg/ml (antigen))
no binding | no binding (tested: 10 µg/ml (antigen)) | no binding (tested: 10 µg/ml (antigen)) | no binding (tested: 10 µg/ml (antigen)) |  |  |  |  |  |  |  |  | human ZY0EO5-E07 (antibody, V domains shown) VH: QVQLQESGPGLVKPSQTLSLTCTVSGGSISSGGYYWSWIRQHPGKGLEWIGNIYYSGSTYYNPSLKSRVTISVDTSKNQFSLKLSSVTAADTAVYYCAREKALASVIPSGYENYYVVDVWGQGTTVTVSS VL: DIQLTQSPSFLSASVGGRVTITCWASQGIAGYLAWYQQKPGKAPKLLIYAASTLQSGVPSRFSGSGSGTEFTLTISSLQPEDFATYYCQHLNSYPLTFGGGTKVEIK | no binding (tested: about 10 µg/ml (antigen)) | no binding (tested: about 10 µg/ml (antigen))
no binding | no binding (tested: 10 µg/ml (antigen)) | no binding (tested: 10 µg/ml (antigen)) | no binding (tested: 10 µg/ml (antigen)) | no binding | no binding | 730 | 1700 | 710 | 1700 | 680 | 2150 | ZY0EO5-E07 murine IgG1 (antibody, V domains shown, also called ZY0E05-E07; E05-E07) VH: QVQLQESGPGLVKPSQTLSLTCTVSGGSISSGGYYWSWIRQHPGKGLEWIGNIYYSGSTYYNPSLKSRVTISVDTSKNQFSLKLSSVTAADTAVYYCAREKALASVIPSGYENYYVVDVWGQGTTVTVSS VL: DIQLTQSPSFLSASVGGRVTITCWASQGIAGYLAWYQQKPGKAPKLLIYAASTLQSGVPSRFSGSGSGTEFTLTISSLQPEDFATYYCQHLNSYPLTFGGGTKVEIK | no binding (tested: about 10 µg/ml (antigen)) | no binding (tested: about 10 µg/ml (antigen))
